Measurements as given in US20230265151A1, “GIP/GLP1 CO-AGONIST COMPOUNDS” (priority 2020, published 2023).
Where a chain is given by its changes, count along the chain named.

T1: human GIP receptor (human, UniProt P48546 22-466)
T1 construct: whole, on cells; also called hGIPR; human glucose-dependent insulinotropic polypeptide receptor
T1 sequence (looked up): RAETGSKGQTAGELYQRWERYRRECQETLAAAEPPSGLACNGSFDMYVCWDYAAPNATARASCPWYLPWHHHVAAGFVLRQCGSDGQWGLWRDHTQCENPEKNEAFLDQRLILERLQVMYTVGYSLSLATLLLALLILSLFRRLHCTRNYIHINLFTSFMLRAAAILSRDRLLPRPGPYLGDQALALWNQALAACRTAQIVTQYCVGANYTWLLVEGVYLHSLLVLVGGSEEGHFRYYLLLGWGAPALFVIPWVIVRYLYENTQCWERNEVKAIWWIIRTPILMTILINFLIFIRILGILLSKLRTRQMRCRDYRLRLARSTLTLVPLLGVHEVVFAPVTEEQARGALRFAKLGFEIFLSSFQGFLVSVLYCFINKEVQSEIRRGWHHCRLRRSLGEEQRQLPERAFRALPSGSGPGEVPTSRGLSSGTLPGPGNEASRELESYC

B1: Y-Aib-EGT-αMeF(2F)-TSD-4Pal-SI-αMeL-LD-Orn-K((2-[2-(2-Amino-ethoxy)-ethoxy]-acetyl)2-(γ-Glu)-CO-(CH2)12-CO2H)AQ-Aib-EFIK((2-[2-(2-Amino-ethoxy)-ethoxy]-acetyl)2 … (peptide)
peptide: YXEGTXTSDXSIXLDXKAQXEFIKXLIEGGPSSGAPPPS
modifications: Aib2, αMeF(2F)6, 4Pal10, αMeL13, Orn16, K17(Z1), Aib20, K24(Z1), αMeY25, C-term NH2; Z1=AEEA2-(γ-Glu)-CO-(CH2)12-CO2H
B2: Y-Aib-EGT-αMeF(2F)-TSD-4Pal-Aib-I-αMeL-LD-Orn-K((2-[2-(2-Amino-ethoxy)-ethoxy]-acetyl)-(γ-Glu)-(10-(4-carboxyphenoxy)decanoyl))AQ-Aib-EFIe-αMeY-LIK((2-[2-(2-Ami … (peptide)
peptide: B1 peptide with S11X, K24X, E28K
modifications: Aib2, αMeF(2F)6, 4Pal10, Aib11, αMeL13, Orn16, K17(Z1), Aib20, D-Glu24 (printed e), αMeY25, K28(Z1), C-term NH2; Z1=AEEA-(γ-Glu)-(10-(4-carboxyphenoxy)decanoyl)
B3: Y-Aib-EGT-αMeF(2F)-TSDK((2-[2-(2-Amino-ethoxy)-ethoxy]-acetyl)3-(γ-Glu)-CO-(CH2)10-CH3)-Aib-I-αMeL-LD-Orn-K((2-[2-(2-Amino-ethoxy)-ethoxy]-acetyl)3-(γ-Glu)-CO-( … (peptide)
peptide: B1 peptide with X10K, S11X, F22X, K24X
modifications: Aib2, αMeF(2F)6, K10(Z1), Aib11, αMeL13, Orn16, K17(Z1), Aib20, αMeF22, D-Glu24, αMeY25, C-term NH2; Z1=AEEA3-(γ-Glu)-CO-(CH2)10-CH3
B4: Y-Aib-EGT-αMeF(2F)-TSDK((2-[2-(2-Amino-ethoxy)-ethoxy]-acetyl)3-(γ-Glu)-CO-(CH2)10-CH3)-Aib-I-αMeL-LD-Orn-K((2-[2-(2-Amino-ethoxy)-ethoxy]-acetyl)3-(γ-Glu)-CO-( … (peptide)
peptide: B1 peptide with X10K, S11X, E21X, K24X
modifications: Aib2, αMeF(2F)6, K10(Z1), Aib11, αMeL13, Orn16, K17(Z1), Aib20, Orn21, D-Glu24, αMeY25, C-term NH2; Z1=AEEA3-(γ-Glu)-CO-(CH2)10-CH3
B5: Y-Aib-EGT-αMeF(2F)-TSD-4Pal-SI-αMeL-LD-Orn-K((2-[2-(2-Amino-ethoxy)-ethoxy]-acetyl)2-(γ-Glu)-CO-(CH2)10-CH3)AQ-Aib-Orn-FI-(D-Glu)-αMeY-LIK((2-[2-(2-Amino-ethoxy … (peptide)
peptide: B1 peptide with E21X, K24X, E28K
modifications: Aib2, αMeF(2F)6, 4Pal10, αMeL13, Orn16, K17(Z1), Aib20, Orn21, D-Glu24, αMeY25, K28(Z1), C-term NH2; Z1=AEEA2-(γ-Glu)-CO-(CH2)10-CH3
B6: Y-Aib-EGT-αMeF(2F)-TSD-4Pal-Aib-I-αMeL-LD-Orn-K((2-[2-(2-Amino-ethoxy)-ethoxy]-acetyl)3-(γ-Glu)-CO-(CH2)10-CH3)AQ-Aib-Orn-FI-(D-Glu)-αMeY-LIK((2-[2-(2-Amino-eth … (peptide)
peptide: B1 peptide with S11X, E21X, K24X, E28K
modifications: Aib2, αMeF(2F)6, 4Pal10, Aib11, αMeL13, Orn16, K17(Z1), Aib20, Orn21, D-Glu24, αMeY25, K28(Z1), C-term NH2; Z1=AEEA3-(γ-Glu)-CO-(CH2)10-CH3
B7: Y-Aib-EGT-αMeF(2F)-TSD-4Pal-Aib-I-αMeL-LD-Orn-QAQ-Aib-Orn-FIK((2-[2-(2-Amino-ethoxy)-ethoxy]-acetyl)2-(γ-Glu)-CO-(CH2)12-CO2H)-αMeY-LIK((2-[2-(2-Amino-ethoxy)-e … (peptide)
peptide: B1 peptide with S11X, K17Q, E21X, E28K
modifications: Aib2, αMeF(2F)6, 4Pal10, Aib11, αMeL13, Orn16, Aib20, Orn21, K24(Z1), αMeY25, K28(Z1), C-term NH2; Z1=AEEA2-(γ-Glu)-CO-(CH2)12-CO2H
B8: Y-Aib-EGT-αMeF(2F)-TSD-4Pal-Aib-I-αMeL-LD-Orn-K((2-[2-(2-Amino-ethoxy)-ethoxy]-acetyl)3-(γ-Glu)-CO-(CH2)10-CH3)AQ-Aib-EFI-(D-Glu)-αMeY-LIK((2-[2-(2-Amino-ethoxy … (peptide)
peptide: B1 peptide with S11X, K24X, E28K
modifications: Aib2, αMeF(2F)6, 4Pal10, Aib11, αMeL13, Orn16, K17(Z1), Aib20, D-Glu24, αMeY25, K28(Z1), C-term NH2; Z1=AEEA3-(γ-Glu)-CO-(CH2)10-CH3
B9: Y-Aib-EGT-αMeF(2F)-TSD-4Pal-Aib-I-αMeL-LD-Orn-K((2-[2-(2-Amino-ethoxy)-ethoxy]-acetyl)3-(γ-Glu)-CO-(CH2)10-CH3)AQ-Aib-K((2-[2-(2-Amino-ethoxy)-ethoxy]-acetyl)3- … (peptide)
peptide: B1 peptide with S11X, E21K, K24X, E28X
modifications: Aib2, αMeF(2F)6, 4Pal10, Aib11, αMeL13, Orn16, K17(Z1), Aib20, K21(Z1), D-Glu24, αMeY25, Orn28, C-term NH2; Z1=AEEA3-(γ-Glu)-CO-(CH2)10-CH3

target: T1, human GIP receptor; assay: SPA competition vs [125I]-GIP, hGIPR membranes

| Binder | Ki |
| --- | --- |
| B1 | 0.054 nM |
| B2 | 0.0578 nM |
| B3 | 0.0372 nM |
| B4 | 0.0134 nM |
| B5 | 0.0215 nM |
| B6 | 0.00965 nM |
| B7 | 0.0279 nM |
| B8 | 0.0207 nM |
| B9 | 0.0175 nM |

target: T2, human glucagon receptor (human, UniProt P47871 26-477); assay: SPA competition vs [125I]-Gcg, hGcgR membranes
T2 construct: whole, on cells; also called hGCGR; hGcgR
T2 sequence (P47871 26-477): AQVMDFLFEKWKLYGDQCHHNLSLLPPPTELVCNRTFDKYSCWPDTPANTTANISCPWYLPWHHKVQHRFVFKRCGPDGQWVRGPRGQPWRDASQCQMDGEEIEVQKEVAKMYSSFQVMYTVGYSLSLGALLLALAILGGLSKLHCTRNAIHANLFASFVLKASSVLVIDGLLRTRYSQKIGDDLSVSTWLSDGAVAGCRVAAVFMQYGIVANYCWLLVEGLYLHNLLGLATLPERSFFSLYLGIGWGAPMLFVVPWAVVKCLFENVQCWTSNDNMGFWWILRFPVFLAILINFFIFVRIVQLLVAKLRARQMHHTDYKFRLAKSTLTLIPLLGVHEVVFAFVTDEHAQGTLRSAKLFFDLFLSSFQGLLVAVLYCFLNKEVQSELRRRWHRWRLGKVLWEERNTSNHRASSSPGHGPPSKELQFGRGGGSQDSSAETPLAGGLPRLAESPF
Experimental: The binding buffer contains 25 mM 4-(2-hydroxyethyl)-1-piperazineethanesulfonic acid (HEPES), pH 7.4, 2.5 mM CaCl₂, 1 mM MgCh, 0.1% (w/v) bacitracin (Research Products), 0.003% (w/v) Polyoxyethylenesorbitan monolaurate (TWEEN®-20), and Roche Complete™ Protease Inhibitors without EDTA. […] Plates are sealed and mixed on a plate shaker (setting 6) for 1 minute and read with a PerkinElmer Trilux MicroBeta® scintillation counter after 12 hours of incubation/settling time at room temperature.
Data are analyzed using four-parameter (curve maximum, curve minimum, IC₅₀, Hill slope) nonlinear regression routines (Genedata Screener, version 12.0.4, Genedata AG, Basal, Switzerland). […] Values for Kᵢ are reported as the geometric mean, with error expressed as the standard error of the mean (SEM) and n is equal to the number of independent replicates (determined in assays performed on different days).

| Binder | Ki |
| --- | --- |
| B1 | 707 nM |
| B2 | 238 nM |
| B3 | 64.9 nM |
| B4 | 356 nM |
| B5 | 93.3 nM |
| B6 | 81.2 nM |
| B7 | 289 nM |
| B8 | 85.9 nM |
| B9 | 28.3 nM |

target: T3, human GLP-1 receptor (human, UniProt P43220 24-463); assay: SPA competition vs [125I]-GLP-1, hGLP-1R membranes
T3 construct: whole, on cells; also called hGLP-1R; human glucagon-like peptide-1 receptor
Procedure, shortened: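 Competition binding in 25 mM HEPES pH 7.4, 2.5 mM CaCl₂, 1 mM MgCl₂, 0.1% bacitracin, 0.003% TWEEN-20, EDTA-free protease inhibitors. IC₅₀ from four-parameter nonlinear fit; Kᵢ given as geometric mean ± SEM, n = independent replicates on different days.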

| Binder | Ki |
| --- | --- |
| B1 | 1.4 nM |
| B2 | 1.22 nM |
| B3 | 0.412 nM |
| B4 | 0.134 nM |
| B5 | 0.101 nM |
| B6 | 0.15 nM |
| B7 | 0.346 nM |
| B8 | 0.275 nM |
| B9 | 0.187 nM |
